The RNAGym collection of RNA variant scans (doi:10.1073/pnas.2313332121)
Fewer inactive variants are shown than the library holds.

B1: TPR 5TU (parent)
chain: GGAUCUUCUCGAUCUAACAAAAAAGACAAAUCUGCCACAAAGCUUGAGAGCAUCUUCGGAUGCAGAGGCGGCAGCCUUCGGUGGCGCGAUAGCGCCAACGUUCUCAACUAUGACACGCAAAACGCGUGCUCCGUUGAAUGGAGUUUAUCAUG

Variants of: B1
Experiment: polymerase ribozyme fitness, log enrichment relative to wild type (log ratio); higher = more active; in vitro selection for triplet polymerase activity
Procedure, shortened: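 PCR was used to build mutant libraries for each subunit of a heterodimeric triplet polymerase ribozyme, which were then transcribed. A single in vitro selection round, in triplicate, used a frozen incubation at −7 °C and recovered extended constructs by gel excision, streptavidin beads and RT-PCR. Fitness is the logarithm of genotype enrichment relative to wild-type enrichment, averaged over replicates with inverse-variance weights. The logarithm is base 2, and after Illumina sequencing only genotypes with ≥10 input reads and ≥1 read per output were kept.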
With U4C U31C C76G C116G the “polymerase ribozyme fitness (log ratio)” value was at most -4.2. With U4A G25U C35U C87A C93G the “polymerase ribozyme fitness (log ratio)” value was at most -4.2. In the case of U4G C5A U55G, the “polymerase ribozyme fitness (log ratio)” value is reported as -0.269. With U4A C38U C57A A66G C96G C105A C123G G124A C129G the “polymerase ribozyme fitness (log ratio)” value was at most -4.2. For U4C A17U G50U G58A G92C C99U G117U, the “polymerase ribozyme fitness (log ratio)” value was at most -4.2. For U4C G48U A49C G68A C79G C105A, the “polymerase ribozyme fitness (log ratio)” value was at most -4.2. In the case of U4A G48A C85A C93A A147C, the “polymerase ribozyme fitness (log ratio)” value is reported as at most -4.2. In the case of U4C C5A C10U U33A G88C C116U G140A, the “polymerase ribozyme fitness (log ratio)” value is reported as at most -4.2. In the case of U4G A16G C54U G62C G71A U101G C105U A142G U144A, the “polymerase ribozyme fitness (log ratio)” value is reported as at most -4.2. In the case of U4A U6A A28U A30G U44A G59C A60G C87U A89U A97C A107U, the “polymerase ribozyme fitness (log ratio)” value is reported as at most -4.2. With U4C C35U A47C U78G G136C the “polymerase ribozyme fitness (log ratio)” value was at most -4.2. For U4A U45A C57U A91C, the “polymerase ribozyme fitness (log ratio)” value was at most -4.2. With U4A U15G C87U the “polymerase ribozyme fitness (log ratio)” value was 0.183. For U4C G94C C116G, the “polymerase ribozyme fitness (log ratio)” value was -0.818. For U4G A47U G58C C93G, the “polymerase ribozyme fitness (log ratio)” value was -4. In the case of U4C C14U U15A A41C C93A C95U, the “polymerase ribozyme fitness (log ratio)” value is reported as at most -4.2. For U4C A49G C51A C87A C132U A150C, the “polymerase ribozyme fitness (log ratio)” value was at most -4.2. For U4C A21U C57G A60G C85A A89C G94A, the “polymerase ribozyme fitness (log ratio)” value was -2.06. In the case of U4G A20C C43U U55A G59U A60G C87A A121G G141C, the “polymerase ribozyme fitness (log ratio)” value is reported as at most -4.2. For U4C A12G A73G C93U G152A, the “polymerase ribozyme fitness (log ratio)” value was -3.07. With U4C A16G A21G A41C A49U U56A G86A U135A A150G the “polymerase ribozyme fitness (log ratio)” value was at most -4.2. In the case of U4C G74A, the “polymerase ribozyme fitness (log ratio)” value is reported as -3.29. For U4C U6G U55A C93G C103G A150U, the “polymerase ribozyme fitness (log ratio)” value was at most -4.2. With U4G A24U G62U C87U A89U the “polymerase ribozyme fitness (log ratio)” value was -3.44. In the case of U4G C5G A29G A52U G67U C79G G83A, the “polymerase ribozyme fitness (log ratio)” value is reported as at most -4.2. With U4C C27U G62C C85A A138U the “polymerase ribozyme fitness (log ratio)” value was at most -4.2. For U4C A26U C69U, the “polymerase ribozyme fitness (log ratio)” value was -2.9. In the case of U4G A19C C36A A119C G133A, the “polymerase ribozyme fitness (log ratio)” value is reported as at most -4.2. For U4C G11U G42C G48A U53G C57G G81U C85U, the “polymerase ribozyme fitness (log ratio)” value was at most -4.2. In the case of U4G A19G A23G G59U A66U G141C, the “polymerase ribozyme fitness (log ratio)” value is reported as at most -4.2. With U4A G84A the “polymerase ribozyme fitness (log ratio)” value was -0.288. For U4A G11C A41U G50C G58A G59U U82C C87U G92U G140A, the “polymerase ribozyme fitness (log ratio)” value was at most -4.2. For U4C C10U U56G A60U G92U, the “polymerase ribozyme fitness (log ratio)” value was -3.76. With U4A G34U U61G G70A C99U A107C U139G the “polymerase ribozyme fitness (log ratio)” value was at most -4.2. In the case of U4G A21G A52G G141A, the “polymerase ribozyme fitness (log ratio)” value is reported as -2.63. In the case of U4G A21U U31A G84U A115C, the “polymerase ribozyme fitness (log ratio)” value is reported as -3.65. With U4G C76U G84A C95U U111G the “polymerase ribozyme fitness (log ratio)” value was at most -4.2. With U4A U6A C36U C57G G68U C79G A91C the “polymerase ribozyme fitness (log ratio)” value was at most -4.2. In the case of U4A G83C G94U U148G, the “polymerase ribozyme fitness (log ratio)” value is reported as at most -4.2. In the case of U4G A28G A91G C93U A115U G133A, the “polymerase ribozyme fitness (log ratio)” value is reported as at most -4.2. With U4A G50A U82G U134C the “polymerase ribozyme fitness (log ratio)” value was -2.39. In the case of U4C A19U G86U, the “polymerase ribozyme fitness (log ratio)” value is reported as -2.06. With U4C A20G C85A A98C A115G the “polymerase ribozyme fitness (log ratio)” value was -2.8. In the case of U4C A47U C85U C105A C116G G143A A147U, the “polymerase ribozyme fitness (log ratio)” value is reported as at most -4.2. For U4C U144G, the “polymerase ribozyme fitness (log ratio)” value was 0.832. For U4C U33A A40U U82G C96G C108U C118U U139C U148A, the “polymerase ribozyme fitness (log ratio)” value was at most -4.2. With U4C A16C A19U G86U C96A C108A the “polymerase ribozyme fitness (log ratio)” value was at most -4.2. With U4A C96A A98C A115U A142U G152C the “polymerase ribozyme fitness (log ratio)” value was at most -4.2. For U4C C5U A20C C87A A98C G133U U148G, the “polymerase ribozyme fitness (log ratio)” value was at most -4.2. For U4A C43U G65U U77C U111G, the “polymerase ribozyme fitness (log ratio)” value was at most -4.2. In the case of U4A U53A U82A A91U A115G U148G, the “polymerase ribozyme fitness (log ratio)” value is reported as at most -4.2. With U4G A23C C79A G92C G100A the “polymerase ribozyme fitness (log ratio)” value was at most -4.2. With U4G C35U G83C G124U U146C the “polymerase ribozyme fitness (log ratio)” value was -2.43. In the case of U4C C36U A49G A66U G83A C85G G88A C114U U146G, the “polymerase ribozyme fitness (log ratio)” value is reported as at most -4.2. With U4A G83U C95G G124U U148C the “polymerase ribozyme fitness (log ratio)” value was at most -4.2. For U4G A39U A40U A91U C95G, the “polymerase ribozyme fitness (log ratio)” value was at most -4.2. With U4G A40C A137G the “polymerase ribozyme fitness (log ratio)” value was -1.84. With U4A G11A A26C A60G G84U G126U C149G the “polymerase ribozyme fitness (log ratio)” value was at most -4.2. For U4G A23U U44G C51U C76G C96U U148C, the “polymerase ribozyme fitness (log ratio)” value was at most -4.2. With U4G A20C C85U the “polymerase ribozyme fitness (log ratio)” value was -0.147. With U4G C10A C35U G83U G88C A120C G143A the “polymerase ribozyme fitness (log ratio)” value was -4.17. With U4C C96G the “polymerase ribozyme fitness (log ratio)” value was 0.0289. For U4G A49U C57U U82G A91U, the “polymerase ribozyme fitness (log ratio)” value was at most -4.2. In the case of U4G A17U C51U A52U C57A C75G G83U G117U G136U, the “polymerase ribozyme fitness (log ratio)” value is reported as at most -4.2. In the case of U4G A22U A37C C95A C96A U127G, the “polymerase ribozyme fitness (log ratio)” value is reported as at most -4.2. For U4C G48A, the “polymerase ribozyme fitness (log ratio)” value was -1.42. For U4A C57A C75G U134G, the “polymerase ribozyme fitness (log ratio)” value was at most -4.2. For U4G A21C C93G, the “polymerase ribozyme fitness (log ratio)” value was -1.92. For U4A U33A G48C C57U C85U A115G C129G G141U, the “polymerase ribozyme fitness (log ratio)” value was at most -4.2. In the case of U4A C76A G86C A122C, the “polymerase ribozyme fitness (log ratio)” value is reported as -3.26. In the case of U4C A22C G48U C93G A122C, the “polymerase ribozyme fitness (log ratio)” value is reported as -3.98. With U4C C18U G48U A49C G68U G74A C76A G88U C116G the “polymerase ribozyme fitness (log ratio)” value was at most -4.2. In the case of U4G A41U A91C A97U, the “polymerase ribozyme fitness (log ratio)” value is reported as at most -4.2. For U4C C57A C87A U146A A150C, the “polymerase ribozyme fitness (log ratio)” value was at most -4.2. In the case of U4C C85G C99U C125G, the “polymerase ribozyme fitness (log ratio)” value is reported as -3.5. For U4C A22U C32G C38G G65C G81A C118U C149U, the “polymerase ribozyme fitness (log ratio)” value was at most -4.2. In the case of U4C A12G C14U A40G G50A G84U U145C, the “polymerase ribozyme fitness (log ratio)” value is reported as at most -4.2. In the case of U4C A28G C38U C69U C87G G133A, the “polymerase ribozyme fitness (log ratio)” value is reported as at most -4.2. With U4G C69G C96U A142C the “polymerase ribozyme fitness (log ratio)” value was -3.64. In the case of U4G C8G A23C A52G C54G G74C, the “polymerase ribozyme fitness (log ratio)” value is reported as at most -4.2. With U4G A41C G48C A60U A97G A107U the “polymerase ribozyme fitness (log ratio)” value was at most -4.2. For U4G C54G C95G, the “polymerase ribozyme fitness (log ratio)” value was -3.63. In the case of U4G A24G A47C C51A C54A C76G U82G G86U A115G, the “polymerase ribozyme fitness (log ratio)” value is reported as at most -4.2. For U4A C85U, the “polymerase ribozyme fitness (log ratio)” value was -1.53.
